From patent publication US20250353910A1 (INVENRA, published 2025)

Assays:
[1] = biological target: T1, Recombinant Rat B7-H3 Fc Chimera Protein (R&D Systems Cat #10610-B3-050) (rat, UniProt Q7TPB4 29-244); experiment: BLI (Octet), bispecific antibody captured on biosensor, soluble antigen
T1 construct: Bought Fc chimera; not shown: Fc part of the chimera
T1 sequence (looked up): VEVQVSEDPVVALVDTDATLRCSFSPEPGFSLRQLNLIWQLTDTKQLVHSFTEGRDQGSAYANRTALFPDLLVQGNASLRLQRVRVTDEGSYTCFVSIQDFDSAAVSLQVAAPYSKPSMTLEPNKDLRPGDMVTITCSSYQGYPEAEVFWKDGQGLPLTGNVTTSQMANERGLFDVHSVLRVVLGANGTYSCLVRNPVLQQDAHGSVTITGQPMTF
Description: (§1) Soluble antigens (e.g., B7H3 or GD2) were then added to the system and binding was measured.

[2] = biological target: T2, Cynomolgus B7H3, His-tagged protein (AcroBiosystems Cat #B73-C52Ha) (cynomolgus); experiment: as above
T2 construct: Bought soluble protein; also called Cyno B7H3
Description: as §1

[3] = biological target: T1, Recombinant Rat B7-H3 Fc Chimera …; experiment: BLI (Octet), bispecific antibody captured on biosensor, soluble antigen; via kinetics
Description: as §1

[4] = biological target: T2, Cynomolgus B7H3, His-tagged protein …; experiment: as above
Description: as §1

koff [1]: 0.00137 s⁻¹ | kon [1]: 199000 M⁻¹ s⁻¹ | koff [2]: 0.000239 s⁻¹ | kon [2]: 206000 M⁻¹ s⁻¹ | Kd [3]: 6.88 nM | Kd [4]: 1.16 nM
B1: Exemplary Bispecific Antibody 1 (B7H3 x GD2) (bispecific antibody)
chain 1: not shown
chain 2: EVQLVESGGGLVQPGGSLRLSCAASGFTFSTYYIHWVRQAPGKGLEWVAWIHPSGKYTYYADSVKGRFTISADTSKNTAYLQMNSLRAEDTAVYYCARHYQVGAMDYWGQGTLVTVSSAQPREPQVYTLPPCRDWLTKNQVSLTCLVKGFYPSDIAVEWESNGQPENNYKTTPPVLDSDGSFFLYSKLTVDKSRWQQGNVFSCSVMHEALHNHYTQKSLSLSPGK
chain 3: not shown
chain 4: EVQLVESGGGLVQPGGSLRLSCAASGSSFTGYNMNWVRQAPGKGLEWVAAIDPYYGGTYYADSVKGRFTISADTSKNTAYLQMNSLRAEDTAVYYCASGMEYWGQGTLVTVSSASTKGPSVFPLAPSSKSTSGGTAALGCLVKDYFPEPVTVSWNSGALTSGVHTFPAVLQSSGLYSLSSVVTVPSSSLGTQTYICNVNHKPSNTKVDKKVEPKSC
notes: B7H3 arm on chains 1 and 2, GD2 arm on chains 3 and 4; also called Ex. bsAb; 1×1 bispecific antibody
